# Reference: IntAct's records for PubMed 20018686
# B1: Serine/threonine-protein kinase BIK1 (Arabidopsis thaliana (Mouse-ear cress)), O48814 (parent)
# chain: MGSCFSSRVKADIFHNGKSSDLYGLSLSSRKSSSTVAAAQKTEGEILSSTPVKSFTFNELKLATRNFRPDSVIGEGGFGCVFKGWLDESTLTPTKPGTGLVIAVKKLNQEGFQGHREWLTEINYLGQLSHPNLVKLIGYCLEDEHRLLVYEFMQKGSLENHLFRRGAYFKPLPWFLRVNVALDAAKGLAFLHSDPVKVIYRDIKASNILLDADYNAKLSDFGLARDGPMGDLSYVSTRVMGTYGYAAPEYMSSGHLNARSDVYSFGVLLLEILSGKRALDHNRPAKEENLVDWARPYLTSKRKVLLIVDNRLDTQYLPEEAVRMASVAVQCLSFEPKSRPTMDQVVRALQQLQDNLGKPSQTNPVKDTKKLGFKTGTTKSSEKRFTQKPFGRHLV
# partner: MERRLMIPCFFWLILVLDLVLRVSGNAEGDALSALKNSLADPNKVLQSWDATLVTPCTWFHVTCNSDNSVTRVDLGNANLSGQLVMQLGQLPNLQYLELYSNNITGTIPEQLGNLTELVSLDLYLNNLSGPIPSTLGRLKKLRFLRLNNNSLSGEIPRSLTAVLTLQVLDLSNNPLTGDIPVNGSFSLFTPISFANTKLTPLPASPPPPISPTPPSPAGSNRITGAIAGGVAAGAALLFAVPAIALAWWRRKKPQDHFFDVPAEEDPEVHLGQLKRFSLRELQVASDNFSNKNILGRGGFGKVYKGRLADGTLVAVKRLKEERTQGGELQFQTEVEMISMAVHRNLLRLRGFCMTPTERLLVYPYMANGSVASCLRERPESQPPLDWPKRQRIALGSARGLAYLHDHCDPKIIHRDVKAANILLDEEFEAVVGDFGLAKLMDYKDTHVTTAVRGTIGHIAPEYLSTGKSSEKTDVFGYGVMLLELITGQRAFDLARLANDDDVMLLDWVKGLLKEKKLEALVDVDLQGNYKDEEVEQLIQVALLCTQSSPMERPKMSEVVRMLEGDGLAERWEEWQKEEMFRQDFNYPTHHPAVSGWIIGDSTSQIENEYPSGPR
# B2: Serine/threonine-protein kinase BIK1 (Arabidopsis thaliana (Mouse-ear cress)), O48814 (parent)
# chain: B1 chain
# Variants of: B1
# Conditions: with bak1_arath BAK1, Q94F62
row,Variant,effect of a mutation on the interaction
1,MGSCFSSRVKADIFHNGKSSDLYGLSLSSRKSSSTVAAAQKTEGEILSSTPVKSFTFNELKLATRNFRPDSVIGEGGFGCVFKGWLDESTLTPTKPGTGLVIAVKKLNQEGFQGHREWLTEINYLGQLSHPNLVKLIGYCLEDEHRLLVYEFMQKGSLENHLFRRGAYFKPLPWFLRVNVALDAAKGLAFLHSDPVKVIYRDIKASNILLDADYNAKLSDFGLARDGPMGDLSYVSARVMGTYGYAAPEYMSSGHLNARSDVYSFGVLLLEILSGKRALDHNRPAKEENLVDWARPYLTSKRKVLLIVDNRLDTQYLPEEAVRMASVAVQCLSFEPKSRPTMDQVVRALQQLQDNLGKPSQTNPVKDTKKLGFKTGTTKSSEKRFTQKPFGRHLV [T237A],disrupting interaction

# Variants of: B2
# Conditions: with fls2_arath FLS2, Q9FL28
# Chain of fls2_arath FLS2, Q9FL28 (Q9FL28 whole entry): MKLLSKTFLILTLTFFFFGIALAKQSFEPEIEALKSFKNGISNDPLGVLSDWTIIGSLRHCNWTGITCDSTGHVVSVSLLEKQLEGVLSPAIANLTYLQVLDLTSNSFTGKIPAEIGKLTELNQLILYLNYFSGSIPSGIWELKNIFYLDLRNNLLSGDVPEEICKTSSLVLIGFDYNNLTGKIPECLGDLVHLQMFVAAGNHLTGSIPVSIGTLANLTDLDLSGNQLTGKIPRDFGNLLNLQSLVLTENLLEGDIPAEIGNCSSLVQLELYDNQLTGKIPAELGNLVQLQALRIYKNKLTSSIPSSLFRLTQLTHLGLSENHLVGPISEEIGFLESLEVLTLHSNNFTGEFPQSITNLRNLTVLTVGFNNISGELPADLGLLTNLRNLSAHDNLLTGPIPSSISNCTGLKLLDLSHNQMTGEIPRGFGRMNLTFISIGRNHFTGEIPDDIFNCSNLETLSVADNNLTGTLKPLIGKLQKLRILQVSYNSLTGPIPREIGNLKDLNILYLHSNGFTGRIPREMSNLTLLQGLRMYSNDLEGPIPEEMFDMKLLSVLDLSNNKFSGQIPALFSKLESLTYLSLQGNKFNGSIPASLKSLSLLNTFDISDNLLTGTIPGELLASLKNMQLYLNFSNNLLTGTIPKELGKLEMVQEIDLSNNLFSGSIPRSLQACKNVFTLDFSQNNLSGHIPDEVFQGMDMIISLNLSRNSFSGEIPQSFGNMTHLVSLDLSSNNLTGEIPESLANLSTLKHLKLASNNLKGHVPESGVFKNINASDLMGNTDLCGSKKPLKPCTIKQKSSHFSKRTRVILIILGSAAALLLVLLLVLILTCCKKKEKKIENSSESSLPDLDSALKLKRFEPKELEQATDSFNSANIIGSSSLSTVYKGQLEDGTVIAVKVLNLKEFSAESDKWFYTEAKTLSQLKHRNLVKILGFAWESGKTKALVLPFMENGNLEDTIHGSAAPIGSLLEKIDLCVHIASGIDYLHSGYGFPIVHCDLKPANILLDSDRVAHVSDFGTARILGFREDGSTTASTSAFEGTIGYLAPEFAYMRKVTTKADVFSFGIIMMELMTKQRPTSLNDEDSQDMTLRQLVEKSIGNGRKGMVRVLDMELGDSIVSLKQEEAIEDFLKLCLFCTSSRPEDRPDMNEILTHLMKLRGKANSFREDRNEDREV
row,Variant,effect of a mutation on the interaction
1,MGSCFSSRVKADIFHNGKSSDLYGLSLSSRKSSSTVAAAQKTEGEILSSTPVKSFTFNELKLATRNFRPDSVIGEGGFGCVFKGWLDESTLTPTKPGTGLVIAVKKLNQEGFQGHREWLTEINYLGQLSHPNLVKLIGYCLEDEHRLLVYEFMQKGSLENHLFRRGAYFKPLPWFLRVNVALDAAKGLAFLHSDPVKVIYRDIKASNILLDADYNAKLSDFGLARDGPMGDLSYVSARVMGTYGYAAPEYMSSGHLNARSDVYSFGVLLLEILSGKRALDHNRPAKEENLVDWARPYLTSKRKVLLIVDNRLDTQYLPEEAVRMASVAVQCLSFEPKSRPTMDQVVRALQQLQDNLGKPSQTNPVKDTKKLGFKTGTTKSSEKRFTQKPFGRHLV [T237A],disrupting interaction
